What all share (assay type): in vivo
Experiment [1] concerns Balb/C mice. In words: Dose response of lactoferrin in zymosan-induced ear swelling mouse model (Example 3).
The test system of experiment [2] is Balb/C mice. In words: Zymosan-induced ear swelling in an inflammatory mouse model (Example 1). Particulars: daily gavage 0.1 mg lactoferrin and/or 50 mg glycine, versus non-supplemented mice. The method, then:
Balb/C mice (8 weeks of age, Charles River, Maastricht, The Netherlands) were randomly assigned two control and three test groups and supplemented daily for three days with 0.1 mg lactoferrin (DMV, Veghel, The Netherlands), 50 mg glycine (Sigma, Zwijndrecht, The Netherlands) or a combination of both components (test groups 3, 4 and 5 respectively) or vehicle (control groups 1 and 2) was administered by gavage. At day two of the supplementation ear thickness was measured using a micrometer (Mitutoyo Digimatic, Veenendaal, The Netherlands) Subsequently 25 μl 0.5% zymosan (Sigma) in PBS (group 2-5) or vehicle (group 1) was injected subcutaneously in both ears. Ear thickness was measured 3, 6 and 24 hours (example 1) after injection after which the animals were sacrificed.
In mice injected in the ear with zymosan, lactoferrin (LF) and glycine (Gly) supplemented mice show a highest decrease in ear swelling when compared to non-supplemented mice, see Table 1. A clear synergistic effect of LF and Gly is observed.

The subject of the next experiment is TNF-α producing cells. Kind of experiment: Ex-vivo ELISpot of TNF-α producing spleen cells from supplemented mice with zymosan-induced ear inflammation (Example 2). The settings on record: 1 μg/ml LPS, after three days of oral supplementation. The method, then:
The spleen was removed and pushed through a cell strainer. Red blood cell lysis was performed in 5 ml of could lysis buffer (4.15 g NH4Cl, 0.5 g KHCO3 and 18.6 mg Na2EDTA in 1 liter water at pH 7,3) for 5 minutes. Cells were washed twice in could RPMI (Invitrogen, Merelbeke, Belgium) and after centrifugation diluted to a concentration of 1.10^7 cells/ml. TNF-α producing cells were detected by ELISpot assay in the absence or presence of 1 μg/ml lipopolysaccharide (Sigma) (example 2).
Spleen cells were collected from mice with a zymosan-induced inflammation in the ear after three days of oral supplementation with water (=control), lactoferrin (LF), glycine or a combination of LF and glycine. The number of TNF-α producing cells was determined using an ELISpot assay. LF and glycine inhibit the LPS stimulated number of TNF producing cells by 92% and 97% respectively (back to not zymosan treated control levels). The combination of glycine and lactoferrin inhibited the number of TNF-α positive cells 50% below the […] injected control. This unexpected high rate of inhibition makes the combination of glycine with lactoferrin an excellent choice for the treatment of inflammatory diseases.

B1: lactoferrin (protein, UniProt P24627 20-708, looked up)
Lactotransferrin: APRKNVRWCTISQPEWFKCRRWQWRMKKLGAPSITCVRRAFALECIRAIAEKKADAVTLDGGMVFEAGRDPYKLRPVAAEIYGTKESPQTHYYAVAVVKKGSNFQLDQLQGRKSCHTGLGRSAGWIIPMGILRPYLSWTESLEPLQGAVAKFFSASCVPCIDRQAYPNLCQLCKGEGENQCACSSREPYFGYSGAFKCLQDGAGDVAFVKETTVFENLPEKADRDQYELLCLNNSRAPVDAFKECHLAQVPSHAVVARSVDGKEDLIWKLLSKAQEKFGKNKSRSFQLFGSPPGQRDLLFKDSALGFLRIPSKVDSALYLGSRYLTTLKNLRETAEEVKARYTRVVWCAVGPEEQKKCQQWSQQSGQNVTCATASTTDDCIVLVLKGEADALNLDGGYIYTAGKCGLVPVLAENRKSSKHSSLDCVLRPTEGYLAVAVVKKANEGLTWNSLKDKKSCHTAVDRTAGWNIPMGLIVNQTGSCAFDEFFSQSCAPGADPKSRLCALCAGDDQGLDKCVPNSKEKYYGYTGAFRCLAEDVGDVAFVKNDTVWENTNGESTADWAKNLNREDFRLLCLDGTRKPVTEAQSCHLAVAPNHAVVSRSDRAAHVKQVLLHQQALFGKNGKNCPDKFCLFKSETKNLLFNDNTECLAKLGGRPTYEEYLGTEYVTAIANLKKCSTSPLLEACAFLTR
notes: globular multifunctional protein of the transferrin family (DMV, Veghel)
As to B1, the swelling with Balb/C mice [1] (0.1 mg LF daily by gavage, time 1 hr) worked out at 78; in the experiment with Balb/C mice [1] (0.1 mg LF daily by gavage, time 2 hr) it was 108; in the experiment on Balb/C mice [1] (0.1 mg LF daily by gavage, time 4 hr) it was 109; in the experiment with Balb/C mice [1] (1 mg LF daily by gavage, time 1 hr), 73; with Balb/C mice [1] (1 mg LF daily by gavage, time 2 hr), 105; in the experiment on Balb/C mice [1] (1 mg LF daily by gavage, time 4 hr), 121. Also, the swelling stood at 99 in the experiment on Balb/C mice [1] (5 mg LF daily by gavage, time 1 hr); 153 in the experiment with Balb/C mice [1] (5 mg LF daily by gavage, time 2 hr); 204 in the experiment on Balb/C mice [1] (5 mg LF daily by gavage, time 4 hr). For the same molecule, the Optimal dose entry in the experiment on Balb/C mice [1] (mouse, daily gavage, higher than 0) is “less than 5 mg”. The results for the “Decrease in ear swelling” value in the experiment on Balb/C mice [2] (3 hrs after zymosan injection in ears) and with Balb/C mice [2] (6 hrs after zymosan injection in ears) were 39 ± 12 and 53 ± 17, respectively. Also, the “Inhibition of the LPS stimulated number of TNF producing cells” value in the experiment with TNF-α producing cells is 92%.

Values taken from patent US20100215631A1, “ANTI-INFLAMMATORY COMPOSITION COMPRISING GLYCINE AND LACTOFERRIN AND THE USE THEREOF” (priority 2006, published 2010).
